Columns and labels:
Test in all cases: EMSA
Details in all cases: N16 of strand 1 = tetrahydrofuran (THF) abasic site analog; EMSA: 50 mM Tris pH 8.0, 1 mM EDTA, 0.2 mg/ml BSA, 50 mg/ml sucrose, 0.5 mg/ml bromophenol blue, 1 mM DTT; 2 nM DNA, at least 20 min; 10% 59:1 native gel …
[1] = target: APE1 N174D N174D (Homo sapiens) (UniProt P27695)
APE1 WT (Homo sapiens) = APE1 WT (Homo sapiens) (UniProt P27695)
[2] = target: APE1 N174K N174K (Homo sapiens) (UniProt P27695)
[3] = target: APE1 N174A N174A (Homo sapiens) (UniProt P27695)
Sequence of APE1 N174A N174A (Homo sapiens) (P27695 whole entry N174A): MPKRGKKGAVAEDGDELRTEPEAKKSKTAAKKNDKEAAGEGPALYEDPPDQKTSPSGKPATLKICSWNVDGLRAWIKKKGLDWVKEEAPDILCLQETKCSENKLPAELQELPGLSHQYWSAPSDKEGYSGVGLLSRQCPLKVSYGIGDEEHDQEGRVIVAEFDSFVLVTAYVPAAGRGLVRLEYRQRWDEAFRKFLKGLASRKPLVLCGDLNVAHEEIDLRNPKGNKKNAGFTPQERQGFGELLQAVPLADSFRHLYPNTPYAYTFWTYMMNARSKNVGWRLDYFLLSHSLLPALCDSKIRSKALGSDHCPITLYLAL

Sequence of APE1 N174D N174D (Homo sapiens) (P27695 whole entry N174D): as the sequence (P27695 whole entry N174A) above, with A174D counted along it
Sequence of APE1 N174K N174K (Homo sapiens) (P27695 whole entry N174K): as the sequence (P27695 whole entry N174A) above, with A174K counted along it
Sequence of APE1 WT (Homo sapiens) (P27695 whole entry): as the sequence (P27695 whole entry N174A) above, with A174N counted along it

Sequence: CGTTCGCTGATGCGCNCGACGGATCCGCAT / ATGCGGATCCGTCGAGCGCATCAGCGAACG [30-bp THF AP-DNA]
- Kd [1]: 13 nM
- Kd (APE1 WT (Homo sapiens)): 0.9 nM
- Kd [2]: 17 nM
- Kd [3]: 44 nM

Reference: paper PMC12557600
